T1: human FcγRIIa type H extracellular domain with C-terminal His tag (human, UniProt P12318 34-217)
T1 construct: extracellular domain; also called FcgRIIaH; FcγRIIa H
T1 sequence (looked up): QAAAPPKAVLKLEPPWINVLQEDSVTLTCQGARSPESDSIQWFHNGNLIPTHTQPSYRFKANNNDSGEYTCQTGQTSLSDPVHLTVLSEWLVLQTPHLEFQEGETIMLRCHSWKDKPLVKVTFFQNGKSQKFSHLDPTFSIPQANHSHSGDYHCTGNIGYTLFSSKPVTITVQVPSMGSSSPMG

T2: human FcγRIIb extracellular domain with C-terminal His tag (human, UniProt P31994 43-217)
T2 construct: extracellular domain; For crystals it was expressed with kifunensine and trimmed with Endo F1; also called FcgRIIb; FcγRIIb extracellular region
T2 sequence (looked up): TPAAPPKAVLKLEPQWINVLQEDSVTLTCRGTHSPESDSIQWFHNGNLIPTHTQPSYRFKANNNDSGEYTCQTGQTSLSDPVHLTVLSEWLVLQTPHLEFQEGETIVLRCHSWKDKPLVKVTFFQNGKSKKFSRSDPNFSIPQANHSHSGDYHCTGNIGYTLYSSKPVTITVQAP


How the values were obtained:
Assay in all cases: SPR; IL6R-BF648/IL6R-L=100
[1] = target: T1, human FcγRIIa type H extracellular …
Experimental: (§1) IL6R-L was utilized as the common antibody L chain for all of the antibodies, the antibodies were expressed and purified according to the method of Reference Example 1, and binding to each of the FcγRs (FcγRIa, FcγRIIa type H, FcγRIIa type R, FcγRIIb, and FcγRIIIa type V) was comprehensively evaluated by the method of Reference Example 2.
(§2) Relative binding activities were calculated for the results of analyzing interactions with the respective FcγRs according to the following method.

[2] = target: T3, human FcγRIa extracellular domain with C-terminal His tag (human, UniProt P12314 16-292)
T3 construct: Whole entry named; also called FcgRIa; FcgIa
Experimental: as §1, §2

[3] = target: T4, human FcγRIIIa type V extracellular domain with C-terminal His tag (human, UniProt P08637 17-208)
T4 construct: extracellular domain; also called FcgRIIIaV; FcγRIIIaV
Experimental: as §1, §2

[4] = target: T2, human FcγRIIb extracellular domain with …
Experimental: as §1, §2

T3 sequence (P12314 16-292): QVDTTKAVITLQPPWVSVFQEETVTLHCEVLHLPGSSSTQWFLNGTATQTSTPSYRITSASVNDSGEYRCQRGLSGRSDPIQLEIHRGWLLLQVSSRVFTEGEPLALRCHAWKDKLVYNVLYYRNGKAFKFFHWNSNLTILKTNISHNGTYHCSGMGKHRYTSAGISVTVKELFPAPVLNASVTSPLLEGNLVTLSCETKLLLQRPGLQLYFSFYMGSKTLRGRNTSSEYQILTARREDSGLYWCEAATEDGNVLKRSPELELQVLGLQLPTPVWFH
T4 sequence (P08637 17-208 F176V): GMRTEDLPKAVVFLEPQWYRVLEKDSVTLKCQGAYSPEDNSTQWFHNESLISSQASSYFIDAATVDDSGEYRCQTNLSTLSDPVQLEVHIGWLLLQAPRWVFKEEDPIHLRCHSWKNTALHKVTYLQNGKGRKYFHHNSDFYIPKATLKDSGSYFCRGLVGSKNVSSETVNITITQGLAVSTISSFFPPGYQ

Binder	relative binding activity [1]	relative binding activity [2]	relative binding activity [3]	relative binding activity [4]
IL6R-BP143/IL6R-L (antibody, human IgG1, kappa, name in EU numbering) heavy: QVQLQESGPGLVKPSETLSLTCAVSGHSISHDHAWSWVRQPPGEGLEWIGFISYSGITNYNPSLQGRVTISRDNSKNTLYLQMNSLRAEDTAVYYCARSLARTTAMDYWGEGTLVTVSSASTKGPSVFPLAPSSKSTSGGTAALGCLVKDYFPEPVTVSWNSGALTSGVHTFPAVLQSSGLYSLSSVVTVPSSSLGTQTYICNVNHKPSNTKVDKKVEPKSCDKTHTCPPCPAPEYLGGDSVFLFPPKPKDTLMISRTPEVTCVVVDVSHEDPEVKFNWYVDGVEVHNAKTKPREEQYNSTYRVVSVLTVLHQDWLNGKEYKCKVSNAALPAPIEKTISKAKGQPREPQVYTLPPSRDELTKNQVSLTCLVKGFYPSDIAVEWESNGQPENNYKTTPPVLDSDGSFFLYSKLTVDKSRWQQGNVFSCSVMHEALHNHYTQESLSLSP light: not shown	143	86	114	133
IL6R-BP148/IL6R-L (antibody, human IgG1, kappa, name in EU numbering) heavy: QVQLQESGPGLVKPSETLSLTCAVSGHSISHDHAWSWVRQPPGEGLEWIGFISYSGITNYNPSLQGRVTISRDNSKNTLYLQMNSLRAEDTAVYYCARSLARTTAMDYWGEGTLVTVSSASTKGPSVFPLAPSSKSTSGGTAALGCLVKDYFPEPVTVSWNSGALTSGVHTFPAVLQSSGLYSLSSVVTVPSSSLGTQTYICNVNHKPSNTKVDKKVEPKSCDKTHTCPPCPAPDYLGDDSVFLFPPKPKDTLMISRTPEVTCVVVDVSHEDPEVKFNWYVDGVEVHNAKTKPREEQYNSTYRVVSVLTVLHQDWLNGKEYKCKVSNAALPKPIEKTISKAKGQPREPQVYTLPPSRDELTKNQVSLTCLVKGFYPSDIAVEWESNGQPENNYKTTPPVLDSDGSFFLYSKLTVDKSRWQQGNVFSCSVMHEALHNHYTQESLSLSP light: not shown	462	33	227	176
IL6R-BP145/IL6R-L (antibody, human IgG1, kappa, name in EU numbering) heavy: QVQLQESGPGLVKPSETLSLTCAVSGHSISHDHAWSWVRQPPGEGLEWIGFISYSGITNYNPSLQGRVTISRDNSKNTLYLQMNSLRAEDTAVYYCARSLARTTAMDYWGEGTLVTVSSASTKGPSVFPLAPSSKSTSGGTAALGCLVKDYFPEPVTVSWNSGALTSGVHTFPAVLQSSGLYSLSSVVTVPSSSLGTQTYICNVNHKPSNTKVDKKVEPKSCDKTHTCPPCPAPEYLGDDSVFLFPPKPKDTLMISRTPEVTCVVVDVSHEDPEVKFNWYVDGVEVHNAKTKPREEQYNSTYRVVSVLTVLHQDWLNGKEYKCKVSNKALPAPIEKTISKAKGQPREPQVYTLPPSRDELTKNQVSLTCLVKGFYPSDIAVEWESNGQPENNYKTTPPVLDSDGSFFLYSKLTVDKSRWQQGNVFSCSVMHEALHNHYTQESLSLSP light: not shown	224	41	153	152
IL6R-BP144/IL6R-L (antibody, human IgG1, kappa, name in EU numbering) heavy: QVQLQESGPGLVKPSETLSLTCAVSGHSISHDHAWSWVRQPPGEGLEWIGFISYSGITNYNPSLQGRVTISRDNSKNTLYLQMNSLRAEDTAVYYCARSLARTTAMDYWGEGTLVTVSSASTKGPSVFPLAPSSKSTSGGTAALGCLVKDYFPEPVTVSWNSGALTSGVHTFPAVLQSSGLYSLSSVVTVPSSSLGTQTYICNVNHKPSNTKVDKKVEPKSCDKTHTCPPCPAPELLGDDSVFLFPPKPKDTLMISRTPEVTCVVVDVSHEDPEVKFNWYVDGVEVHNAKTKPREEQYNSTYRVVSVLTVLHQDWLNGKEYKCKVSNAALPAPIEKTISKAKGQPREPQVYTLPPSRDELTKNQVSLTCLVKGFYPSDIAVEWESNGQPENNYKTTPPVLDSDGSFFLYSKLTVDKSRWQQGNVFSCSVMHEALHNHYTQESLSLSP light: not shown	108	64	128	121
IL6R-BP147/IL6R-L (antibody, human IgG1, kappa, name in EU numbering) heavy: QVQLQESGPGLVKPSETLSLTCAVSGHSISHDHAWSWVRQPPGEGLEWIGFISYSGITNYNPSLQGRVTISRDNSKNTLYLQMNSLRAEDTAVYYCARSLARTTAMDYWGEGTLVTVSSASTKGPSVFPLAPSSKSTSGGTAALGCLVKDYFPEPVTVSWNSGALTSGVHTFPAVLQSSGLYSLSSVVTVPSSSLGTQTYICNVNHKPSNTKVDKKVEPKSCDKTHTCPPCPAPEYLGDDSVFLFPPKPKDTLMISRTPEVTCVVVDVSHEDPEVKFNWYVDGVEVHNAKTKPREEQYNSTYRVVSVLTVLHQDWLNGKEYKCKVSNAALPKPIEKTISKAKGQPREPQVYTLPPSRDELTKNQVSLTCLVKGFYPSDIAVEWESNGQPENNYKTTPPVLDSDGSFFLYSKLTVDKSRWQQGNVFSCSVMHEALHNHYTQESLSLSP light: not shown	582	24	209	177

The next lines start with the values.

relative binding activity [1]	relative binding activity [2]	relative binding activity [3]	relative binding activity [4]	Binder
226	39	125	177	IL6R-BP179/IL6R-L (antibody, human IgG1, kappa, name in EU numbering) heavy: QVQLQESGPGLVKPSETLSLTCAVSGHSISHDHAWSWVRQPPGEGLEWIGFISYSGITNYNPSLQGRVTISRDNSKNTLYLQMNSLRAEDTAVYYCARSLARTTAMDYWGEGTLVTVSSASTKGPSVFPLAPSSKSTSGGTAALGCLVKDYFPEPVTVSWNSGALTSGVHTFPAVLQSSGLYSLSSVVTVPSSSLGTQTYICNVNHKPSNTKVDKKVEPKSCDKTHTCPPCPAPELLGDDSVFLFPPKPKDTLMISRTPEVTCVVVDVSHEDGEVKFNWYVDGVEVHNAKTKPREEQYNSTYRVVSVLTVLHQDWLNGKEYKCKVSNAALPKPIEKTISKAKGQPREPQVYTLPPSRDELTKNQVSLTCLVKGFYPSDIAVEWESNGQPENNYKTTPPVLDSDGSFFLYSKLTVDKSRWQQGNVFSCSVMHEALHNHYTQESLSLSP light: not shown
770	30	204	183	IL6R-BP150/IL6R-L (antibody, human IgG1, kappa, name in EU numbering) heavy: QVQLQESGPGLVKPSETLSLTCAVSGHSISHDHAWSWVRQPPGEGLEWIGFISYSGITNYNPSLQGRVTISRDNSKNTLYLQMNSLRAEDTAVYYCARSLARTTAMDYWGEGTLVTVSSASTKGPSVFPLAPSSKSTSGGTAALGCLVKDYFPEPVTVSWNSGALTSGVHTFPAVLQSSGLYSLSSVVTVPSSSLGTQTYICNVNHKPSNTKVDKKVEPKSCDKTHTCPPCPAPEYLGDDSVFLFPPKPKDTLMISRTPEVTCVVVDVSHEDPEVKFNWYVDGVEVHNAKTKPREEQYNSTYRVVSVLTVLHQDWLNGKEYKCKVSNAALPRPIEKTISKAKGQPREPQVYTLPPSRDELTKNQVSLTCLVKGFYPSDIAVEWESNGQPENNYKTTPPVLDSDGSFFLYSKLTVDKSRWQQGNVFSCSVMHEALHNHYTQESLSLSP light: not shown
409	57	186	177	IL6R-BP177/IL6R-L (antibody, human IgG1, kappa, name in EU numbering) heavy: QVQLQESGPGLVKPSETLSLTCAVSGHSISHDHAWSWVRQPPGEGLEWIGFISYSGITNYNPSLQGRVTISRDNSKNTLYLQMNSLRAEDTAVYYCARSLARTTAMDYWGEGTLVTVSSASTKGPSVFPLAPSSKSTSGGTAALGCLVKDYFPEPVTVSWNSGALTSGVHTFPAVLQSSGLYSLSSVVTVPSSSLGTQTYICNVNHKPSNTKVDKKVEPKSCDKTHTCPPCPAPDYLGDDSVFLFPPKPKDTLMISRTPEVTCVVVDVSHEDGEVKFNWYVDGVEVHNAKTKPREEQYNSTYRVVSVLTVLHQDWLNGKEYKCKVSNDALPKPIEKTISKAKGQPREPQVYTLPPSRDELTKNQVSLTCLVKGFYPSDIAVEWESNGQPENNYKTTPPVLDSDGSFFLYSKLTVDKSRWQQGNVFSCSVMHEALHNHYTQESLSLSP light: not shown
401	29	186	173	IL6R-BP149/IL6R-L (antibody, human IgG1, kappa, name in EU numbering, Same printed alterations as IL6R-BP214) heavy: QVQLQESGPGLVKPSETLSLTCAVSGHSISHDHAWSWVRQPPGEGLEWIGFISYSGITNYNPSLQGRVTISRDNSKNTLYLQMNSLRAEDTAVYYCARSLARTTAMDYWGEGTLVTVSSASTKGPSVFPLAPSSKSTSGGTAALGCLVKDYFPEPVTVSWNSGALTSGVHTFPAVLQSSGLYSLSSVVTVPSSSLGTQTYICNVNHKPSNTKVDKKVEPKSCDKTHTCPPCPAPDYLGDDSVFLFPPKPKDTLMISRTPEVTCVVVDVSHEDPEVKFNWYVDGVEVHNAKTKPREEQDNSTYRVVSVLTVLHQDWLNGKEYKCKVSNAALPKPIEKTISKAKGQPREPQVYTLPPSRDELTKNQVSLTCLVKGFYPSDIAVEWESNGQPENNYKTTPPVLDSDGSFFLYSKLTVDKSRWQQGNVFSCSVMHEALHNHYTQESLSLSP light: not shown

Source: US20150299296A1 (Chugai, published 2015)
